Reference: patent US20230303675A1

Experiments:
[1] = biological target: human Ang2 (angiopoietin-2) (human) (UniProt O15123); test: BLI (Octet), scFv amine-coupled on AR2G biosensor, Ang2 in solution at 50, 40, 30, 20 nM
[2] = biological target: mouse Ang2 (angiopoietin-2) (mouse) (UniProt O35608); test: BLI (Octet), scFv amine-coupled on AR2G biosensor, Ang2 in solution
Chain of UniProt O35608 (O35608 19-496 limits assumed): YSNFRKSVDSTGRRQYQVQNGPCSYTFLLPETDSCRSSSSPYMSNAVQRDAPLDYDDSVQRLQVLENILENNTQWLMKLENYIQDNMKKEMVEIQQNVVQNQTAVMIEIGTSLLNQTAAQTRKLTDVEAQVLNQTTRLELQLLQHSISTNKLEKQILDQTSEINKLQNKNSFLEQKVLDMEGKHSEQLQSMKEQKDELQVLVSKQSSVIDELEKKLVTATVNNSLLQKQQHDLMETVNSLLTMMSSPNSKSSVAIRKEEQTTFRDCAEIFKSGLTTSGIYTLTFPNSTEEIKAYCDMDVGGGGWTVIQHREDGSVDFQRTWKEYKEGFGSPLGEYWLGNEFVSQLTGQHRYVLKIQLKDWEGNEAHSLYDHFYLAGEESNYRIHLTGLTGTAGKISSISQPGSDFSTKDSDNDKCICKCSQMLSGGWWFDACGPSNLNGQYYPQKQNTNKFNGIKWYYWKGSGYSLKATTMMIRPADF

Chain of UniProt O15123 (O15123 19-496 limits assumed): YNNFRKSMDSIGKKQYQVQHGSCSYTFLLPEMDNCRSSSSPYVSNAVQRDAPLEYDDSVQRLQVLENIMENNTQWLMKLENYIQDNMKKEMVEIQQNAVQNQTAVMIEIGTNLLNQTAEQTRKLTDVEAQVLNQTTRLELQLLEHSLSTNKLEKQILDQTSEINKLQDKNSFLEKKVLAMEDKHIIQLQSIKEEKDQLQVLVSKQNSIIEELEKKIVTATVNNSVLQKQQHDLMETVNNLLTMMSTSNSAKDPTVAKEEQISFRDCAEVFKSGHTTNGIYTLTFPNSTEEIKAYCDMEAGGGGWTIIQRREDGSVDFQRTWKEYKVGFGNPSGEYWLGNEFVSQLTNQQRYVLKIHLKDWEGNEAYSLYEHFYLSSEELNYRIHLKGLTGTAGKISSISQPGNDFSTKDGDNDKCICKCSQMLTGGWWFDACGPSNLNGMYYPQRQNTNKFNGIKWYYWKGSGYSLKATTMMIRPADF

Kd [1]: 0.313 nM
koff [1]: 0.000172 s⁻¹
kon [1]: 549000 M⁻¹ s⁻¹
Kd [2]: 0.231 nM
koff [2]: 0.000169 s⁻¹
kon [2]: 733000 M⁻¹ s⁻¹
B1: anti-Ang2 antibody clone O4 ScFv with N76S substitution in the light-chain variable region (scFv, part only; not given: Linker, domain order and His tag, V domains shown, not shown: another chain or arm of the molecule; small tags and cut ends)
VH: QVQLVESGGGLVKPGGSLRLSCAASGFTFSSYSMNWVRQAPGKGLEWVSSISASDGATYYADSVRGRFTISRDNSRSTLYLQMNSLRAEDTAVYYCAKTLAGYSGPMGGMDVWGQGTTVTVSS
VL: DIQMTQSPSSLSASVGDRVTITCRASRDISNYLAWYQQKPGKAPKSLIYGASNLQSGVSSQFSGSGSGTDFTLTISSLQPEDSATYYCQQYYSYPLTFGGGTKVDIK
